Here are results for two molecules from patent US20220218001A1, “REDOX ENZYMES IN ANIMAL FEED COMPOSITIONS” (Novozymes A/S, priority 2019, published 2022).

Series [1] is described as follows: Gastric stability assay of SODs. The following applies: 37° C., reference activity at pH7.0 without stress. Format: in vitro ADME. The procedure: Gastric stability was assayed with artificial gastric juice as stress condition. 20 μl SOD with appropriate dilution was added into 180 μl stress buffer (100 mM NaCl, 0.0013M HCl at pH3.0). The stress buffer with pepsin was prepared by adding 1.11 mg/ml pepsin (from porcine gastric mucosa, P7000, Sigma, 474 U/mg). The mixture was incubated at 37° C. in thermomixer for 0, 15, 30, 45, 60, 90, and 120 minutes separately. 10 μl sample extracted from the mixture was added into 90 μl activity buffer (K2HPO4/KH2PO4 mixed with final concentration of 100 mM PBS at pH7.0) as stop mixture. Then 20 μl stop mixture was added into 200 μl WST solution (or CytoC solution at pH7.8), and finally 20 μl coupled enzyme solution from kit was added to measure absorbance. The absorbance was measured at 450 nm for Sigma SOD kit (or 550 nm at pH 7.8) for 20 minutes at 37° C. (interval 40 sec, shake before first read). The activity at pH7.0 without stress condition was set as reference, and the residual activity at stress condition (pH3.0, pH3.0+pepsin) compared with reference was calculated as relative stability.

For series [2] the following is noted: commercial SODs from Sigma set as specific activity reference; cited from earlier work.
Series [3] concerns genes related to oxidative stress. Put plainly: Oxidative stress PCR array in duodenum and ileum of weaned piglets. The format is in vivo. The note with it: duodenum, day 42, vs control group, p=0.019. On the procedure:
The objective of this study was to evaluate anti-oxidant enzymes supplementation (SOD and CAT) alone and in combination in early weaned piglets, and if these enzymes can potentially alleviate the oxidative stress impact on weaned piglets and consequently improve the growth performance. In the in vivo trial (example 3), plasma samples were collected at day 0 (baseline, weaning moment), day 14 and day 42 of the study for additional analysis. […]
Total RNA was extracted from tissues (stored at −20° C. in RNA later) by lysing tissue with FastPrep® 24 (MP Biomedicals, Illkirch, France), using the phenol-chloroform method (TRIzol reagent; Invitrogen, Invitrogen, Cergy Pontoise, France) followed by purification using RNeasy columns by automated method with the Qiacube HT (Qiagen, Courtaboeuf, France). The concentration of RNA was measured by NanoDrop ND-1000 Spectrophotometer (Thermo Fisher Scientific, Illkirch, France) and the purity was estimated by A260/A280 ratio. RNA integrity was assessed by using the Agilent 2100 Bioanalyzer (Agilent Technologies, Basel, Switzerland). The threshold of the RNA Integrity Number (RIN) was set at 7.5 to validate sufficient quality of the RNAs. […]
(§1) ANOVA was performed for plasmatic parameters and student test was calculated to evaluate the significance of the differences observed in gene expression.

Series [4] deals with Glutathione peroxidase. Put plainly: Plasma GPx activity (GPx determination KIT). The format is in vivo. The note with it: piglets, day 42. The procedure: The concentration of total proteins was determined in liver lysate and plasma, using the Pierce™ BCA Protein Assay Kit (Thermo Fisher Scientific, Illkirch-Graffenstaden, France). The samples were processed following the supplier's recommendations. Plasma samples were diluted 100 times. 25 μL of standards or samples were added to 200 μL of working reagent and incubated 30 minutes at 37° C. The colorimetric intensity was measured at 562 nm. Results are expressed in μg of total protein per mL of sample.
The activity of the Glutathione peroxidase was determined using the GPx determination KIT (abcamab102530). Briefly, 40 μL of the colorimetric reaction mix was added to 100 μL of standards and 10 μL of cumene hydroperoxide was added to the standards and to the 50 μL of samples (Plasma samples were adjusted to bring 600 μg of total protein in the reaction). The absorbance at 340 nm was measured (A1), and after 5 min at 25° C., a second measurement was done (A2).
The GPx activity was calculated as follow:
B=NADPH amount that was decreased between T1 and T2 (in nmol).
T1=Time of the first reading (A1) (minutes).
T2=Time of second reading (A2) (minutes).
V=Pretreated sample volume added into the reaction well (mL).
D=Sample dilution factor.
as §1

The nature of series [5]: Nutritional model in piglets: growth performance (FCR). Format: in vivo. The following applies: d 0-42, piglets, vs NC (22% CP). The procedure: Experimental Unit: Slatted Floor Pens, 4 piglets per pen (2 barrows & 2 gilts per pen)
Feed Type: Starter (Day 0-21) and Grower (Day 21-42). MASH feed is employed, using a corn-soybean type commercial ration formulation with an increase of 5-6% crude protein compared to normal commercial rations. Test material is added to the feed beginning on Day 0 and continuing through Day 42.
Replication/piglets per treatment: Treatments 1-8 fed to 12 replicates each of 4 piglets (2 barrows+2 gilts) per replicate.
Piglet Source: Piglets (post-weaned, at 21 days of age, called Day 0) are collected in early am (day of placement or Day 0), weighed (2 barrows & 2 gilts per pen), and assigned to each experimental pen. Each piglet is weighed individually and assigned to a pen, with very high and very low body weights excluded from the study. After all piglets are assigned to a pen, the body weights are checked to ensure no treatment is more than 1 standard deviation from another treatment.

In series [6] the test system is reactive oxygen metabolites (ROM) and Plasma antioxidant capability (PAT). Put plainly: Oxidative stress index FRAS5 (d-ROM, PAT) in plasma. Format: in vivo, piglets. The following applies: piglet plasma. On the procedure:
An oxidative stress index was calculated as the ratio of reactive oxygen metabolites (ROM) and Plasma antioxidant capability (PAT) determined in plasma and liver lysate samples. ROM and
PAT were analyzed using commercially methods (d-ROM fast test and PAT test) on FRAS5 instrument (Innovatics Laboratory, Philadelphia, USA). For d-ROM test, 10 μL of sample was mixed with an acidic buffer. Then, a chromogen was added, and measured photometrically at 505 nm. The results are expressed in UCarr (1 UCarr=0.08 mg of H2O2/dl). For PAT test, 10 μl of sample was added in a colored solution (mix of source ferric ions and chromogen). The intensity of chromatic change was measured at 505 nm. The results are expressed in UCor (1 UCor=1.4 μM of Vitamin C equivalent). The oxidative stress index was calculated as the ratio of d-ROMs test value to PAT test value.
as §1

With “r E. coli: commercial Sigma SOD; probably recombinant SOD bovine expressed in Escherichia coli (S9697)”, the “Gastric stability: pH 3, +pepsin 15 min - residual activity value %” value in series [1] (15 min) turned out to be 43%. Further, in series [1] (30 min), the “Gastric stability: pH 3, +pepsin 30 min - residual activity value %” value turned out to be 43%. The “SOD specific activity (reference)” value in series [2] is reported as 6108 U/mg EP.

B1: CAT: catalase feed enzyme: SEQ ID NO 7 in Examples 1-2; in Example 4 probably treatment 6 (Product C, SEQ ID NO 250) (protein)
chain: MRHFWLLPAVAGIAGAQCPYLSGEMSFTQEQDNAGDTIEVTEQTIDNTLYVNDTGSYMTTDFGTPISDQYSLKAGRRGPTLLEDFIFRQKLQRFDHERVPERVVHARGAGAYGTFKSYADWSNVTAADFLSANEKETPMFCRFSTVVGFRGSVDTARDVHGHACRFYTDEGNYDIVGINFAPFFIQDAIQFPDLVHAIKPMPNNEIPQAATAHTSAWDFFSQQSTALHSALWLMSGNGIPRSFRHMNGYGVHSFRFVAANGTSKVVRYRWKSQQGVASLVWEEAQAAAGKNSDYHRQDLYNAIANGHYPKYELQAQIMDEADMLRFGFDLLDPTKLVPEEVVPYTPLGMMELNANPTNYFAEVEQAGFQPGHVVPGIDFTDDPLLQGRLFSYLDTQLTRHGGPNFEQIPVNRPRKPVHNNNRDGFGQQQIPTNNWAYTPNTMSNGYPMQANQTHGHGFFTSPYRYASGHLIREPSPTFHDHWSQPAMFWNSLIPAEQQMVVNAIVFENSKVNSPHVRKNVVNQLNMVNNNLAVRVARGLGLDEPSPNPTYYTSNKTSNVGTFGKPLLSIEGLQVGFLASNSHPESIKQGQAMAAQFSAAGVDLNIVTEAYADGVNTTYALSDAIDFDALIIADGVQSLFASPSLANQMNSTATSTLYPPARPYQILVDSFRYGKPVAAVGSGSAALKNAGIDTSRSGVYTGSSETTENIAKEVLKGLYTFRFVDRFALDE
modifications: Aspergillus niger; mat_peptide (1)..(740)
In the case of B1, the “GPX1 gene fold change” value in series [3] was found to be 1.34. The “plasma GPx activity” value in series [4] was “significant increase”. Besides, in series [5], the FCR entry is recorded as “significantly better than NC”. For the same molecule, in series [6] (both time point (day 14 and 42)), the “reactive oxygen metabolites (d-ROM)” value is on record as “increase”. The “plasmatic antioxidant capacity (PAT)” value in series [6] (day 14, p<0.0001 between groups) is listed as “increase”.
